The text below walks through data of PMC11635287, “Molecular interactions of the chaperone CcmS and carboxysome shell protein CcmK1 that mediate β-carboxysome assembly” (Plant Physiology, 2024).

The stoichiometry N is a count of units in the complex or per binding partner. For orientation: Kd means the equilibrium constant for the complex coming apart. Low readings indicate a tighter complex, high ones a looser complex.

B2: CcmK1-His (His-tagged CcmK1 from Nostoc sp. PCC 7120) (natural protein, UniProt A0ACD6B949 1-114, looked up)
chain: MSIAVGMVETLGFPAVVEAADAMVKAARVTLVGYEKIGSGRVTVIVRGDVSEVQASVAAGVESVKRVNGGQVLSTHIIARPHENLEYVLPIRYTEDVEQFRENVNAIRPFGRRP
notes: CcmK1, carboxysome shell protein, Nostoc sp; GenBank BAB72824.1; synthesized gene in pET-22b(+); The His tag is named for the pull-down only; also called CcmK1 hexamer; source: E. coli BL21(DE3), purified (Ni2+-NTA, gel filtration)

Data set [1] concerns the target CcmK1-ΔC12, His-tagged (C-terminus-truncated CcmK1 from Nostoc sp. PCC 7120) (Nostoc sp. PCC 7120). In words: SEC; gel filtration chromatography of CcmK1 or CcmK1-ΔC12 alone (Supplementary Figs. S4 and S5). A general note: Size exclusion chromatography separates by hydrodynamic size, large species first.
The target of data set [2] is CcmS-His (His-tagged CcmS from Nostoc sp. PCC 7120) (Nostoc sp. PCC 7120). In words: MST; His-tagged CcmS labelled with dye as target at 0.25 μM; non-labelled ligand in 2-fold steps, 16 capillaries; Monolith NT.115, 25 °C, 60% excitation power.
For data set [3], the target named is T1, CcmS-His (His-tagged CcmS from Nostoc sp. PCC 7120) (Nostoc sp. PCC 7120, UniProt A0ACD6B954 1-142, dye label on the His tag in the MST assays).
T1 chain: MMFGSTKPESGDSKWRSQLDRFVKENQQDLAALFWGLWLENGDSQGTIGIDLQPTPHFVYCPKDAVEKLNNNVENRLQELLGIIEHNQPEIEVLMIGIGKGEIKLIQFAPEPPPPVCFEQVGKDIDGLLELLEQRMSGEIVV
Nature of the data set: MST.

Data set [4] concerns the molecule itself. Nature of the data set: crystal structure; CcmS mixed with CcmK1-C15 at a molar ratio of 1:10, space group P41212, 1.67 Å; 0.2 M lithium sulfate, 0.1 M Tris pH 8.5, 1.26 M ammonium sulfate, 18 °C.
Data set [5] addresses B2. Nature of the data set: SEC + native gel or EMSA; molecular mass of the CcmS/CcmK1 complex by gel filtration chromatography and Native-PAGE (Supplementary Figs. S3B and S5A). The settings on record: both partners purified. A general note: In EMSA bound probe runs differently from free probe, usually more slowly.
Data set [6] concerns the target T2, CcmS-His (His-tagged CcmS from Nostoc sp. PCC 7120) (Nostoc sp. PCC 7120, UniProt A0ACD6B954 1-142, dye label on the His tag in the MST assays).
T2 construct: CcmS, Nostoc sp; ccmS encodes a protein of 142 amino acids; GenBank BAB73249.1; synthesized gene in pET-22b(+); also called CcmS dimer; source: E. coli BL21(DE3), purified (Ni2+-NTA, gel filtration)
In words: MST; His-tagged CcmS labelled with dye as target at 0.25 μM; non-labelled ligand in 2-fold steps, 16 capillaries; Monolith NT.115, 25 °C, 60% excitation power. The settings on record: both partners purified.

Data set [7] concerns the molecule itself. In words: SEC; gel filtration chromatography of CcmK1 or CcmK1-ΔC12 alone (Supplementary Figs. S4 and S5).

Consider “CcmK1-ΔC12, His-tagged (C-terminus-truncated CcmK1 from Nostoc sp. PCC 7120) (domain or fragment)”, for which the stoichiometry N in data set [1] worked out at 6.

In data set [2], “CcmK1-C12 (12-amino acid C-terminal peptide of CcmK1)” came in with a Kd of 41.5 µM.

As for FRENVNAIRPFGARP [CcmK1-C15 R112A peptide], in data set [3], the Kd amounted to 101 µM.

B1: CcmS from Nostoc sp. PCC 7120 (as used for crystallization, Native-PAGE and gel filtration; tag not told) (natural protein, UniProt A0ACD6B954 1-142, looked up)
chain: MMFGSTKPESGDSKWRSQLDRFVKENQQDLAALFWGLWLENGDSQGTIGIDLQPTPHFVYCPKDAVEKLNNNVENRLQELLGIIEHNQPEIEVLMIGIGKGEIKLIQFAPEPPPPVCFEQVGKDIDGLLELLEQRMSGEIVV
notes: CcmS, Nostoc sp; ccmS encodes a protein of 142 amino acids; GenBank BAB73249.1; crystal structures PDB 8ZLH (alone) and 8ZLZ (with CcmK1-C15); also called CcmS dimer; purified CcmS; source: E. coli BL21(DE3), purified (Ni2+-NTA or Strep-tag XT, gel filtration)
Consider B1, for which the “stoichiometry N” value in data set [4] is 2; in data set [5], 2 CcmS dimers per CcmK1 hexamer.

Take B2: the Kd in data set [6] was found to be 34.5 µM. Further, the “stoichiometry N” value in data set [7] was determined as 6.
